# Measurements reported in patent publication US9028829B2, “Uniform field magnetization and targeting of therapeutic formulations” (The Children's Hospital of Philadelphia, priority 2004, dated 2015).
# System: Pronase
# Experiment: Protection of MNP-encapsulated catalase from proteolysis
# Assay type: in vitro ADME
# Conditions: by 30 mins
# Description: Protection and activity of MNP-encapsulated catalase. The capacity of MNP to protect the catalase cargo was measured using a proteolysis assay. Samples were incubated for 60 min at 37° C. with shaking in a 0.2 wt % buffered Pronase, a robust mixture of proteinases which completely digests proteins into individual amino acids. The amount of catalase retained by MNP post proteolysis was determined following MNP separation by centrifugation (20 min, 4° C. at […]) using the radioactivity assay described above. The enzymatic activity of MNP-bound catalase retained over time was measured in comparison with free catalase.
molecule,measurement,value
"free catalase: bovine liver catalase, not encapsulated (protein, UniProt P00432 2-527, looked up) Catalase: ADNRDPASDQMKHWKEQRAAQKPDVLTTGGGNPVGDKLNSLTVGPRGPLLVQDVVFTDEMAHFDRERIPERVVHAKGAGAFGYFEVTHDITRYSKAKVFEHIGKRTPIAVRFSTVAGESGSADTVRDPRGFAVKFYTEDGNWDLVGNNTPIFFIRDALLFPSFIHSQKRNPQTHLKDPDMVWDFWSLRPESLHQVSFLFSDRGIPDGHRHMNGYGSHTFKLVNANGEAVYCKFHYKTDQGIKNLSVEDAARLAHEDPDYGLRDLFNAIATGNYPSWTLYIQVMTFSEAEIFPFNPFDLTKVWPHGDYPLIPVGKLVLNRNPVNYFAEVEQLAFDPSNMPPGIEPSPDKMLQGRLFAYPDTHRHRLGPNYLQIPVNCPYRARVANYQRDGPMCMMDNQGGAPNYYPNSFSAPEHQPSALEHRTHFSGDVQRFNSANDDNVTQVRTFYLKVLNEEQRKRLCENIAGHLKDAQLFIQKKAVKNFSDVHPEYGSRIQALLDKYNEEKPKNAVHTYVQHGSHLSAREKANL",catalase activity on exposure to proteolytic enzymes,total deactivation
